Each block holds one binder with its values, some of them ahead of it.
Assays:
4H491-bN = target: T1, 4H491-bN; test: two-hybrid library CCNG1;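 further: natural log of median RNA to DNA barcode read ratio; higher means stronger binding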
T1 chain: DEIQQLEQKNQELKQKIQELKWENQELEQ

4H48-bN = target: T2, 4H48-bN; test: two-hybrid library CCNG1;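 further: natural log of median RNA to DNA barcode read ratio; higher means stronger binding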
T2 chain: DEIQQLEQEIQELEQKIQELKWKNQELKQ

4H342-bN = target: T3, 4H342-bN; test: two-hybrid library CCNG1;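 further: natural log of median RNA to DNA barcode read ratio; higher means stronger binding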
T3 chain: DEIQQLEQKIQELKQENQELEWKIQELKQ

4H2883-bN = target: T4, 4H2883-bN; test: two-hybrid library CCNG1;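 further: natural log of median RNA to DNA barcode read ratio; higher means stronger binding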
T4 chain: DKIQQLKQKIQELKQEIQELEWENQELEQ

4H19-bN = target: T5, 4H19-bN; test: two-hybrid library CCNG1
T5 chain: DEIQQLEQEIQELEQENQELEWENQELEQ

4H2937-bN = target: T6, 4H2937-bN; test: two-hybrid library CCNG1
T6 chain: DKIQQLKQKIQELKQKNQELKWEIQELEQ

4H2696-bN = target: T7, 4H2696-bN; test: two-hybrid library CCNG1
T7 chain: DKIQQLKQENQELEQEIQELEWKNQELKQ

4H2944-bN = target: T8, 4H2944-bN; test: two-hybrid library CCNG1
T8 chain: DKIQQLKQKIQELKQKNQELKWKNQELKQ

Core_IIIN-es_KEEK = target: T9, Core_IIIN-es_KEEK; test: two-hybrid library CCmax; details: mean of both orientations
T9 chain: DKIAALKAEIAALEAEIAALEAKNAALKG

Core_IIII-es_KEEK = target: T10, Core_IIII-es_KEEK; test: two-hybrid library CCmax; details: mean of both orientations
T10 chain: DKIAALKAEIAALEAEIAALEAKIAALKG

Core_NNNN-es_KEEK = target: T11, Core_NNNN-es_KEEK; test: two-hybrid library CCmax; details: mean of both orientations
T11 chain: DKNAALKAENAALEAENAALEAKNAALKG

Binder: DEIQQLEQEIQELEQENQELEWENQELEQ [4H19-bN]
interaction score (4H491-bN): -0.636
interaction score (4H48-bN): -0.58
interaction score (4H342-bN): -1.48
interaction score (4H2883-bN): -2.16
interaction score (4H19-bN): -0.738
interaction score (4H2937-bN): -0.594
interaction score (4H2696-bN): -0.528
interaction score (4H2944-bN): 2.27

Binder: DEIAALEAKIAALKAKIAALKAEIAALEG [Core_IIII-es_EKKE]
interaction score (Core_IIII-es_KEEK): 2.36

Continued, values first:

interaction score (Core_IIIN-es_KEEK): 1.73
Binder: DEIAALEAKIAALKAKIAALKAENAALEG [Core_IIIN-es_EKKE]

interaction score (Core_NNNN-es_KEEK): -0.488
Binder: DENAALEAKNAALKAKNAALKAENAALEG [Core_NNNN-es_EKKE]

From paper PMC10397247
